Reference: the DeepSol protein solubility set

Assay: soluble on expression in E. coli; label from the status in PepcDB or PDB records

Sequence | soluble on expression in E. coli
MEEHLSVMYERLRQELPKLFLQSHDYSLYSLDVEFINEILNIRTKGRTWYILSLTLCRFLAWNYFAHLRLEVLQLTRHPENWTLQARWRLVGLPVHLLFLRFYKRDKDEHYRTYDAYSTFYLNSSGLICRHRLDKLMPSHSPPTPVKKLLVGALVALGLSEPEPDLNLCSKP | not soluble
MAMGKPMQVSRYWRHFREKYRLIGGKCENGHLLFPKRPICPICGSRNIEEFQFSGKGKVITWTIVRNPPSGFEYYKPYPLALVQLEEGPVVLAQLTDVEPEEIKEGMEVEMVTRKIREFDEDGLILYGYKFRPIIKSELEHHHHHH | not soluble
MGSDKIHHHHHHMKFKIHSDITYQVMSPTTFIFNVHALRTESQHILDESLIVTPPIEIEEFSYNSGTSRFVRLKATENTTFSMSYTATVDTQYKVIDQRQELETVPVVDLDGDIIPFLFPSRYCQSDKLQKLAYKEFGKIENVYSKVLAITDWIYNNVEYISGSTNSQTSAFDTITERAGVCRDFAHLGIALCRALSIPARYFTGYAFKLNPPDFHACFEAYIGGNWIIFDATRLVPLNGLVKIATGRDAADAAVASIFGNASSTNMHVECASLDTDFTPFWYDKNSLKGLSFQ | not soluble
GPGSMMEGSPSEVHVHSSMAMGLQERPPLELVSHASEVSCLTINDNYDMWNASMYPNLNSGFDASLTSATTPDTTVARFAPAMRPHRKQQLSHQMMPLPARGEQTMSDIDSEVVLWDRPPTQDVLGSPAASGL | soluble
MSSGLYSMEKKEFDKVLDLERVKPYGDTMNDGKVQLSFTLPLKNNERSAEAAKQIALKMGLEEPSVVMQQSLDEEFTFFVVYGNFVQSVNYNEIHVEAVNSEILSMEETDEYIKENIGRKIVVVGASTGTDAHTVGIDAIMNMKGYAGHYGLERYEMIDAYNLGSQVANEDFIKKAVELEADVLLVSQTVTQKNVHIQNMTHLIELLEAEGLRDRFVLLCGGPRINNEIAKELGYDAGFGPGRFADDVATFAVKTLNDRMNS | soluble
MGSDKIHHHHHHMHYDHVLDKRMLRRSFEQAAAGYDQSAVLQREICDRMLSRLEYIKYVPARILDAGSGTGYGTRKLIERYPAAEIMPMDIALTMHRCARMAISEQIPGWQRWLPFRRHWPRDYICADIEQLPLGEASIGMIWSNLAIQWCNDLRQTFAEAYRVLENGGLLMFSTFGPDTLKELRQAFKSADSFSHVNRFTDMHDIGDMLVNCGFSLPVMDMEYITLTYEDVRGVMQDLKAIGARNVTQGRRRGLTGKAAWQQVIERYEALRQDGRLPATYEVVYGHAWKPESRQVQLKPETRRKLGLEP | not soluble
MGKVLIIGAGGVGTVVAKKVAMNTDVFTEIMLASRTRSKCDKIASEIKNVRIQTAQVDADNVEELVALFESFKPELVINVALPYQDLTIMDACLRCGVNYLDTANYEPLDEAKYEYSWQWAYQDRFRK | not soluble
MGSDKIHHHHHHMIRAGIIGATGYTGLELVRLLKNHPEAKITYLSSRTYAGKKLEEIFPSTLENSILSEFDPEKVSKNCDVLFTALPAGASYDLVRELKGVKIIDLGADFRFDDPGVYREWYGKELSGYENIKRVYGLPELHREEIKNAQVVGNPGCYPTSVILALAPALKHNLVDPETILVDAKSGVSGAGRKEKVDYLFSEVNESLRPYNVAKHRHVPEMEQELGKISGKKVNVVFTPHLVPMTRGILSTIYVKTDKSLEEIHEAYLEFYKNEPFVHVLPMGIYPSTKWCYGSNHVFIGMQMEERTNTLILMSAIDNLVKGASGQAVQNMNIMFGLDETKGLEFTPIYP | soluble
MRPSAPNIWIWKVSNLASDPRETVSGEWYAARSNLSSAARLRHGGTLLLVLDAKDNHVITKAEIKAVEISHRVGTIPREIHFPDGSLFETSDNEGVDRLLGLYLPKRAGFVHRLEQFRPRLIGITAAAVLLAYGTYKLALPAVVELAVAMTPPIVPKIMSASTMQALDQTVFSASELPLEEQNAIRVQFSRIAAHAEGSPEDYKLNFRKGGYIGPNAFALPDGTLVLTDELVELAGGDRQMIIGVLAHEIGHVEYEHSLRQLYRAAGVAGLVMLIAGDVGSAMEDILTQGGGLLALSHSRDAERQADQRSVELMRKADLDPTAIERFFALLEEKLGDKGGTSIISTHPGTPQRRKAIIDYNASLDNKPAGNLEHHHHHH | not soluble
MKLDLDAFRIQPGKKPNLAKRPTRIDPVYRSKGEYHELLANHVAELSKLQNVLYADNRYAILLIFQAMDAAGKDSAIKHVMSGVNPQGCQVYSFKHPSATELEHDFLWRTNCVLPERGRIGIFNRSYYEEVLVVRVHPEILEMQNIPHNLAHNGKVWDHRYRSIVSHEQHLHCNGTRIVKFYLHLSKEEQRKRFLERIDDPNKNWKFSTADLEERKFWDQYMEAYESCLQETSTKDSPWFAVPADDKKNARLIVSRIVLDTLESLNLKYPEPSPERRKELLDIRKRLENPENGK | not soluble
MAHHHHHHMLQRLSHRSVLGYHGAPQVAALRCSLRFGTNIGGSYYQESDTAGTHQMNNDIRLGLVIKPQSTLVELWEQALKAWPTRRFLGSKMWVRGKLGYVWATYESINTEVEAMRTLLHSMGVEKGSRVVVISENRYEWVVVHFATMQLGAHFVALPTNVTPSEAQLVVKSTQSKVLFVETKASYAAIKGWIGRVGQLEHAICFEDQVGEGSYAVAISIAADVPEKTLARTDVRAEDTAMIVFTAGTTGPPKGVMLSHKSIVANVSSVYASLGEALTHSDMFMSLCSWCVAGALTTDLYQALCKGACVCIPPEILEGFQDLPLVNPSVIVSVAQPFQRAYANIVDDILNRRSFTKDLTRFVVGRITENRLMFKKPGRTLQAFSHALLGKFKAQFGSELRVAIIIGHQLTKDQSELMADLDVFVVNTYGFMEAGGLVATDVDVPQRLKALPGLEVRVVNEKNEIVAPGDLGEILIEAPNAMQGYFDVHIDPEEAKNSLVEYGSRTFVRSGDYGTLTGGWITVKGNKDVLITLANSKTVNPLEVEAALTKSPFIKQVFIYGNRHPYVVALVVANTKAIAAHLRKVERRDGVPLVNDREKADCIRAELRRVSQDLPPRAHVRRFAFVDEFTLANGFMTVKMGYARQKIEDHYVHYFEALYDETPKFYGFAVDDYDDLF | soluble
MSLDIKVQKTEDLIPYEKNPRHNEGAITAVAKSIEKFGFKVPIVVDASNVIVNGHTRLKAAKYLGLKEVPTIIADDLTPEQIKAFRLADNKVGEIATWDEELLNAELDELADLDLDFDMTEFGFDLPDIEGEEVEVIEDEFEEELPAEPISKLGDIYQLGRHRLMCGDSTNSLEVEKLMGNKKADLLITDPPYNVAYEGKGKEALTIKNDSKETNEFHSFLYEAFSAAINNMKLGSSFYVWYASSEVVNFHTALEEAGFLVKQELIWNKNSMVLSRQDYHWKHEPCLYGWASGGSHSWYSDRKQTTILNFDRPTVNKEHPTMKPVALFDYQIKNSSKQGDCILDLFGGSGTTLIACEQNEREAYLMELDPRYVDVIIARWEAFTGEVAVKISGNDTAVVDGEGHHHHHH | soluble
MGSDKIHHHHHHMSKILNTQLIGIFNRLEKQSLEIQMAAQCLIQAIGGEGYVYVKGYDDLQFFESFILHSDERLKSSRKLDAIKDFKEIDSTDRVLLFAPFYNDQVALDIQKLIDLDIDVVLISNKPKTDDFPDHLVHFIDLSTPRPIVYTEDYDKIVQPHAIALNYVYYDIYTQMIEMTRDLEL | not soluble
MGSSHHHHHHSSGLVPRGSHMTAEEMKATESGAQSAPLPMEGVDISPKQDEGVLKVIKREGTGTEMPMIGDRVFVHYTGWLLDGTKFDSSLDRKDKFSFDLGKGEVIKAWDIAIATMKVGEVCHITCKPEYAYGSAGSPPKIPPNATLVFEVELFEFKGEDLTEEEDGGIIRRIQTRGEGYAKPNEGAIVEVALEGYYKDKLFDQRELRFEIGEGENLDLPYGLERAIQRMEKGEHSIVYLKPSYAFGSVGKEKFQIPPNAELKYELHLKSFEKAKESWE | soluble
MGSDKIHHHHHHMFNAQYFRTFITLVETGSFTHTARKLEMTQPGVSQHIRKLERYLDKSLLYRHGRRFTLTETGRRAYDYAVKLFAEHEQFRHSLDNDSPDTGECRVASPSSVGLMFYPFILGYQQMHPGLTVTYDFAFNAEIVDAVLAGRFDVGIVTDVTKHPDLDFEPWHQEPLCLLVPADFTGTTISELMALGFMNYSDGINNASSLLRRNFAGEFRSMSHFPQQGFSNEVSMVLDAVARGLGFTVVPRSVMETSPWQRQVKELPLAESVYETLYVVTKRGVEMPRRYQQLLGEFRLQRRNVLYGYAEAPPLEDEA | not soluble
MPSSTSSSLENLSVSVCAAGDSAAYQRNSVFGDDVVIVAAYRSPLCKAKRGGLKDTYPDDILAPVLKALIEKTNINPAEVGDIVVGSVLGAGSQRASECRMAAFYAGFPETVPVRTVNRQCSSGLQAVADVAAAIKAGFYDIGIGAGLESMTANPMAWEGSVNPKVKTMAQAQDCLLPMGITSENVAQKFSITRQEQDQAAVGSHRKTAAATAAGRFKDEIIPIKTKIVDPKTGDEKPVTISVDDGIRPGTSLADLAKLKPVFRKDGSTTAGTSSQVSDGAGAVLLMKRSIALQKGLPILGVFRTFAAVGVPPSIMGIGPAVAIPAAVKAAGLQIDDIDLFEINEAFASQFVYCQKKLEIDPQKINVNGGAMAIGHPLGATGARCVATLLHEMKRRGRDCRFGVVSMCIGTGMGAAAVFERGDACDELCNAKAKHHHHHH | soluble
MGSDKIHHHHHHQPPFPAPPAVRDIDCLEQDLMVYARALPQPDAPLLTLQDQERQTGFFLRRFFAAWDMRAPSMPRHTMFADLRATLDGKGWGANLLPVPPARTESLWQRCRTGEYPSLAVPAIITGNTSLRMAPDDEPFFRDPARAGEGYPFDYFQYSALWAGMPVFVVHASSDGGWLLCETPLAAGWVRARDVAYVDSGFMNAYRTGMYAAVVADDTPLRTAEGRWVLTAHTGAVFPVDKADAAGLVLRVPVRGADGGAGIRLVHVSYGAAARMPLPLTPVAVAMVGNGMMRQPYGWGGLLENRDCSAAMHDLFAPFGIWLPRNSSQQARAGALVSLEEMTPPQREAHILEQGVPFFSFIWMRGHIGLYLGPDRQDCAAGKPLMFHNVWGIRTGGGRAPEGRLVIGRAVVTTLHAGEEYPQVRKNWMLDRIRGLTLLPPQVP | not soluble
MAAPLIPVLTAPTAAGKTALALRLAREYGLEIVAADAFTVYRGLDLGTAKPTPQERASVPHHLLDVVDVTQSYDVAQYAAQAEAAIVDILARGRLPLVVGGTGFYLSALSRGLPLTPPSDPKMRAALEAELQERGLDALLAEIEQANPAEAARMERNPRRVVRALEVYRAAGRFPGEFGYSPPAFQYQVFAFSPPAAEMEQRVQERTAAMLRAGWPQEAQWLAGQVPPEQEPRPTVWQALGYAEALAVAQGRLSLAGAEQAIALATRQYGKRQLTWMRRQLGAEVQSPDAAEAHLRAFLERSGAPSLEHHHHHH | not soluble
ADDAKPRVKVPSSAKAGETVTVKALISHKMESGQRKDADGKLIPRSIINRFTCELNGVNVVDVAIDPAVSTNPYFEFDAKVDAAGEFKFTWYDDDGSVYEDVKPIAVA | soluble
MQQHEIRRFVERYFAANGCTFVEASDDYLTVQLTAEMDKELMNRPFYWHYIERTGGVPQPMRLTLITRASERTDKLKGERLHFGAPRLHQLFRSAQKRGSFIRLYEEPNAPLDGNAALHPWLGMNVTISYECDRKKDEIVSLGLHLISGTIVESFHERMRERRLTPKIPDYCFTISPLIKPRSGIGRLEQYIRSRIAADNHAWADEARRRWADDLALLDEFYKDCEEKPECYYIEKEALEKQYKPRITVSVINGGLFYLLPRSS | not soluble
MLTDGSYFHLHLVSDSTGETLITVSRAVTAQYANVTPVEHVYPLVRSQKQLDRVLQEIEEAPGIVLFTLLETELVNRLEAKCQEINSPSLSIIGPVMQLFEAYLGASTMGRVGAQHTLNAEYFQRIDALNYSMMHDDGQHVEGLEEADVVLVGVSRTSKTPTSIYLANRGIRTANVPLVAGIPIPHQLETLKKPLVVSLHASPERLIQVRQNRLLSLGAGSGNDSYIDRQAVTDEVLLARKLSAKYGWSLLDVTRRSIEETAAAIMKLLADRQRQRVPELEHHHHHH | not soluble
